Molecular target: MAdCAM-1 (mucosal addressin cell adhesion molecule-1) (UniProt Q13477)
Assay: cell adhesion assay

UniProt Q13477, sequence (Q13477 19-382): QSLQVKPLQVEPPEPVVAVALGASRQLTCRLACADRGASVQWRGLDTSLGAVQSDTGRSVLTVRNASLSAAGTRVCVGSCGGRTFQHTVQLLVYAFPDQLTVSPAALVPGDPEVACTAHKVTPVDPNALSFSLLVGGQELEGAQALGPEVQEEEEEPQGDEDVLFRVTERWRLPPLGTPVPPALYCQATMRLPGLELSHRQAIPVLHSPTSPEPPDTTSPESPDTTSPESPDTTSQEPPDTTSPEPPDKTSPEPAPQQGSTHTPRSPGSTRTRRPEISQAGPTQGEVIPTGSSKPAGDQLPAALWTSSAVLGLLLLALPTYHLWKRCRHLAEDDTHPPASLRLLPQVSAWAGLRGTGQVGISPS

Q: How did the relative light units of bound cells (~7.5 pmol MAdCAM-1 coated) turn out when “α4β7 integrin (from UniProt P13612 34-1032; P26010 20-798) (receptor)” was run?
A: The relative light units of bound cells (~7.5 pmol MAdCAM-1 coated) was 1e+06 RLU.
